Data on 4 compounds can be found in patent US20050079218A1, “Matrices for the stabilizing and controlled release of problematic substances” (priority 2001, published 2005).

For data set [1] the following is noted: cited from earlier work.
In another data set the test system is U78 MG tumour. Put plainly: efficacy of BCNU matrices in tumour-bearing nude mice (FIG. 2). In kind it is in vivo. Particulars: U78 MG tumour subcutaneously inoculated. On the procedure: Thus the effectiveness of BCNU in tumour-bearing nude mice (U78 MG tumour subcutaneously inoculated) is the same for a lipid matrix according to the invention and for a conventional polyanhydride matrix, as shown in FIG. 2.
In FIG. 2, the area of the tumour is plotted in […] on the ordinate, and the time in days on the abscissa.

Data set [2] can be described thus: release of model substances from cylindrical lipid carrier systems with differing gelatin content (FIGS. 3 and 4). Particulars: phosphate buffer pH 7.4, 37° C.; for period of controlled release: lipid matrix with 0, 1, 5, 10 and 20% gelatin, cylindrical; for control of release via gelatin content: fluorescence intensity. Format: physicochemical. The text has this:
FIGS. 3 and 4 show diagrams illustrating the dependence of the rate of release on the proportion of release-controlling substance in the carrier system according to the invention. In the embodiment shown in FIGS. 3 and 4, a lipid matrix composed of glycerol tripalmitate with differing gelatin contents […]. The carrier system used is cylindrical in shape.
The proportion of gelatin within the carrier system is 0, 1, 5, 10 and 20%.
The quantity released in percent is shown on the ordinate, and the time in days on the abscissa.
Substances used for the release from the carrier system (for example pyranine or tetramethylrhodamine-labelled bovine serum albumin (TAMRA-BSA) were dispersed in the desired quantity in an aqueous 15% (m/m) gelatin solution. 100-μl portions of this dispersion were pipetted into each opening in a 96-hole plate, and freeze-dried. The lyophilisate was comminuted in a mortar, and mixed with glyceryl trimyristate in a desired percentage. Powder mixtures with a content of up to 30% (m/m) of gelatin resulted. Cylindrical carrier systems were produced by compressing the corresponding proportions by weight of gelatin with lipid granulate. To this end, 7 mg of substance was produced in a 2-mm pressing tool using a compressive force of 250 N over 10 sec. In this way, carrier system charged with pyranine or fluorescence-labelled bovine serum albumin (TAMRA-BSA) were produced in the composition, as shown in Table 1.
(§1) To test the release of model substances from carrier systems depending on the content of release-controlling substance, the cylinders obtained in Example 1 were incubated at 37° C. in 40 ml of phosphate buffer at pH 7.4. The release of the substances was monitored by measuring the fluorescence intensity. To this end, pyranine was excited at 407 nm and the emission measured over 436 nm. The TAMRA-BSA content was determined at a wavelength of 572 nm with excitation at 541 nm.

Data set [3] is described as follows: release of active hyaluronidase from carrier matrices in phosphate buffer, activity via Morgan-Elson reaction (FIG. 1). Format: physicochemical. On the procedure: The ordinate gives the release quantity of hyaluronidase in percent, and the abscissa the time in hours.
as §1
To test the stabilising properties of the carrier systems, glyceryl trimyristate was worked up with hyaluronidase. To this end, 25 mg neopermease, a mixture of 200,000 IU hyaluronidase and gelatin, was mixed with 325 mg of lipid and compressed as described in Example 1 to form cylindrical carrier systems weighing 7 mg. The gelatin content of this mixture was approximately 7.1%. To determine the release of the enzyme, 5 matrices were incubated with phosphate buffer as described in Example 2, and the release determined by measuring the activity via the Morgan-Elson reaction (Muckenschnabel I., Cancer Lett. 131(1) (1998) 13 to 20).

As to `O=NN(CCCl)C(=O)NCCCl` [BCNU, carmustine], in data set [1], the half-life in plasma result is “approximately 20 minutes”. Moreover, the “effectiveness (tumour area over time), lipid matrix versus conventional polyanhydride matrix” value in the data set on U78 MG tumour is reported as “the same”.

Turning to `O=S(=O)([O-])c1cc(O)c2ccc3c(S(=O)(=O)[O-])cc(S(=O)(=O)[O-])c4ccc1c2c34.[Na+].[Na+].[Na+]` [pyranine], in data set [2], the “period of controlled release” value was “over a period of several weeks” and the “control of release via gelatin content” value is listed as “optimally controlled via the gelatin content”.

As for “TAMRA-BSA: bovine serum albumin fluorescence-labelled with tetramethylrhodamine”, in data set [2], the “period of controlled release” value is “over a number of weeks or months” and the “control of release via gelatin content” value is “optimally controlled via the gelatin content”.

Consider hyaluronidase, for which the “activity liberated from carrier system” value in data set [3] (glyceryl trimyristate cylinders, gelatin approximately 7.1%, phosphate buffer pH 7.4, 37° C.) is “all the activity is liberated”. Besides, the “effect of release on the enzyme” value in data set [3] (release from conventional system poly(1,3-bis[carboxyphenoxypropane]-sebacic acid) 20:80) is given as “inactivation”. In addition, the “activity of the enzyme achieved on release” value in data set [3] (release from glyceryl tripalmitate matrix) was determined as 100%.
